Assays:
fibrin = test: Simulated fibrinolysis in healthy patient blood, T2Coagulation T2B versus TEG LY30; type: cell-based, human; settings: kaolin runs
Method: Five different healthy patient samples were used to test whether T2Coagulation was sensitive to fibrinolysis. Addition of tissue plasminogen activator (TPA) was used to simulate fibrinolysis by adding it at two levels to healthy patient blood. TPA cleaves fibrin as it forms. It was observed that fibrinolysis can be detected within 10 minutes on T2Coagulation, which is less than half the time required for detection on TEG. For all five patients there was a clear difference between healthy and fibrinolytic samples.
There are several potential features that can be used for this correlation. Three that were investigated were the difference between (i) the minimum and maximum T2B values (FIG. 13), (ii) the average of the T2B values over the final 25 minutes of the T2B curves, and (iii) the T2B values at 10 minutes. All had correlations with R^2 values between 0.72 and 0.79. The correlation plots show a higher sensitivity of T2Coagulation for fibrinolysis than TEG. This can be seen by the groupings for the different levels of fibrinolysis in FIG. 13. The healthy patient samples are circled with the solid line. […] The T2Coagulation T2B term can be detected in as little as 10 minutes, which is much faster than the TEG LY30 term can be detected, indicating the utility of the T2Coagulation signal for more rapid measurement of fibrinolysis.

whole blood fibrinolysis = test: T2MR whole blood fibrinolysis with spiked TPA; type: cell-based, human; settings: TPA 100 U/mL, blood from a healthy donor
Method: The T2MR surface is also sensitive to whole blood fibrinolysis. To assess this, healthy donor samples were spiked with tissue plasminogen activator (TPA).
TPA was added at 100 U/mL to blood from a healthy donor. In the absence of TPA (see FIG. 27a) two stable peaks form at the expected clotting time. With 100 U/mL of TPA (see FIG. 27b) the clot forms at the expected time, but proves to be unstable after 20-30 minutes. Both the instability and the distance between the final T2 peaks indicate sensitivity to fibrinolysis induced by the presence of TPA.
The T2MR effect on fibrinolysis was expressed in AU values (arbitrary units; see FIG. 27c) obtained by calculating the difference between the maximum and minimum T2 value observed for the clot signal (or T2B) in the T2 time curve.
Fibrinolysis was monitored by T2 magnetic resonance (T2MR) in five patient blood samples with and without the addition of TPA (100 U/mL) (FIG. 27c). […] All other samples required addition of TPA to induce fibrinolysis, as confirmed by the reference method.

whole blood sample = test: TEG clot strength (MA) of whole blood samples containing abciximab; type: cell-based, human; settings: patient sample 29494
Method: The TEG Hemostasis Analyzer provides quantitative and qualitative measurements of the physical properties of a clot (Samara et al., Thromb. Res. 115:89-94, 2005). In the present example, the maximum amplitude (MA) and the coagulation time (R) were measured for the thrombin generated clot sample. MA is an indicator of the viscoelasticity of clot formation or clot strength and is dependent on platelet aggregation and fibrin formation and polymerization. R is the period of time of latency until initial fibrin formation and has been correlated with the velocity of thrombin generation.
The clotting of a whole blood sample was perturbed using the antithrombotic agent abciximab (ReoPro®). Abciximab is the Fab fragment of a human-murine monoclonal antibody that binds to the Ith/IIIa receptor of human platelets and inhibits platelet aggregation. Abciximab serves to inhibit the retraction of a clot during the clotting process.
Samples containing abciximab were prepared according to the following procedure and referenced in the application and Figures by a number corresponding to the concentration of abciximab in units of μg/mL.
1. Blood was drawn from normal donors into six citrate tubes. Normal donors must not have taken aspirin or any anti-platelet drug in the past two weeks.
2. The six tubes of blood were pooled and mixed gently by inversion eight to ten times. Samples were used within two hours of collection.
3. A abciximab solution (10 mg/5 mL) was diluted at a ratio of 1:4 using saline as a diluent to form “solution 1.”
4. The blood was spiked with solution 1 and saline according to Table 5
5. […]
In a second experiment, five aliquots of patient sample 29494 were prepared with different concentrations (0, 2, 4, 8, and 0 μg/mL) of abciximab prior to initiation of the clotting process. The T2 relaxations times for the samples were measured in series, with each set of measurements lasting approximately 50 min. […] The corresponding TEG-determined MA values for these samples was 60.7, 61.4, 30.4, and 22.0, respectively.

human platelets = test: T2 relaxation 3D plots of clotting whole blood containing abciximab; type: cell-based
Method: T2 relaxation rate data was collected from CK blood samples drawn from healthy patients. For each sample, a series of T2 decay curves were measured over a period of 50 minutes. The decay curves were each processed using an inverse Laplace transform (ILT CONTIN) to provide an array of curves showing T2 intensity as a function of T2 time. […] FIG. 20 illustrates the 3D data sets for patient samples 29328 and 29350 collected on a Bruker minispec. […] At a time between 5 minutes and 30 minutes, the single water population diverged into two significant water populations. These two water populations correspond to the two components of the clot, i.e., the retracted clot and the serum surrounding the retracted clot. […] For some samples these two peaks were not entirely resolved. […]
In a first experiment, four aliquots of patient sample 29488 were prepared with different concentrations of abciximab (0, 2, 4, and 8 μg/mL) prior to initiation of the clotting process. The T2 relaxation times for the four samples were measuring over the course of clot formation and the corresponding 3D plots were determined using the technique described in Example 13. […] This physical change is evidenced and quantified in the corresponding 3D plots (FIG. 21), showing fast exchange of water within the uniform sample at the highest concentration of abciximab.

B1: Cathflo®: recombinant alteplase manufactured by Genentech (protein, UniProt P00750 36-562, looked up)
Tissue-type plasminogen …: SYQVICRDEKTQMIYQQHQSWLRPVLRSNRVEYCWCNSGRAQCHSVPVKSCSEPRCFNGGTCQQALYFSDFVCQCPEGFAGKCCEIDTRATCYEDQGISYRGTWSTAESGAECTNWNSSALAQKPYSGRRPDAIRLGLGNHNYCRNPDRDSKPWCYVFKAGKYSSEFCSTPACSEGNSDCYFGNGSAYRGTHSLTESGASCLPWNSMILIGKVYTAQNPSAQALGLGKHNYCRNPDGDAKPWCHVLKNRRLTWEYCDVPSCSTCGLRQYSQPQFRIKGGLFADIASHPWQAAIFAKHRRSPGERFLCGGILISSCWILSAAHCFQERFPPHHLTVILGRTYRVVPGEEEQKFEVEKYIVHKEFDDDTYDNDIALLQLKSDSSRCAQESSVVRTVCLPPADLQLPDWTECELSGYGKHEALSPFYSERLKEAHVRLYPSSRCTSQHLLNRTVTDNMLCAGDTRSGGPQANLHDACQGDSGGPLVCLNDGRMTLVGIISWGLGCGQKDVPGVYTKVTNYLDWIRDNMRP
modifications: alteplase
notes: recombinant alteplase manufactured by Genentech
degree of fibrinolysis of samples (fibrin; 60 ng/mL Cathflo in healthy patient blood): partially fibrinolytic
degree of fibrinolysis of samples (fibrin; 118 ng/mL Cathflo in healthy patient blood): fully fibrinolytic

B2: tissue plasminogen activator (protein, UniProt P00750 36-562, looked up)
Tissue-type plasminogen …: SYQVICRDEKTQMIYQQHQSWLRPVLRSNRVEYCWCNSGRAQCHSVPVKSCSEPRCFNGGTCQQALYFSDFVCQCPEGFAGKCCEIDTRATCYEDQGISYRGTWSTAESGAECTNWNSSALAQKPYSGRRPDAIRLGLGNHNYCRNPDRDSKPWCYVFKAGKYSSEFCSTPACSEGNSDCYFGNGSAYRGTHSLTESGASCLPWNSMILIGKVYTAQNPSAQALGLGKHNYCRNPDGDAKPWCHVLKNRRLTWEYCDVPSCSTCGLRQYSQPQFRIKGGLFADIASHPWQAAIFAKHRRSPGERFLCGGILISSCWILSAAHCFQERFPPHHLTVILGRTYRVVPGEEEQKFEVEKYIVHKEFDDDTYDNDIALLQLKSDSSRCAQESSVVRTVCLPPADLQLPDWTECELSGYGKHEALSPFYSERLKEAHVRLYPSSRCTSQHLLNRTVTDNMLCAGDTRSGGPQANLHDACQGDSGGPLVCLNDGRMTLVGIISWGLGCGQKDVPGVYTKVTNYLDWIRDNMRP
notes: cleaves fibrin as it forms
time after which the clot proves to be unstable (whole blood fibrinolysis): 20 to 30 min

B3: abciximab (antibody, chains of the INN, looked up, V domains shown)
VH: EVQLQQSGTVLARPGASVKMSCEASGYTFTNYWMHWVKQRPGQGLEWIGAIYPGNSDTSYIQKFKGKAKLTAVTSTTSVYMELSSLTNEDSAVYYCTLYDGYYVFAYWGQGTLVTVSA
VL: EIVLTQSPVTLSVTPGDSVSLSCRASRDISNNLHWFQQTSHESPRLLIKYASQSMSGIPSRFSGSGSGTDFTLSINSVETEDFGMYFCQQTNSWPYTFGGGTKLEIK
modifications: Fab
TEG-determined MA value (whole blood sample; abciximab 2 μg/mL): 61.4
TEG-determined MA value (whole blood sample; abciximab 4 μg/mL): 30.4
TEG-determined MA value (whole blood sample; abciximab 8 μg/mL): 22.0
effect on clot associated T2 signal intensity (human platelets; 8 μg/mL Reopro, T2reader, versus native sample): reduces the signal intensity of the clot associated signal
phases (retracted clot and serum water populations) visible within the clot (human platelets; highest concentration of abciximab (8 μg/mL), patient sample 29488, Bruker minispec): no longer two phases visible within the clot

From US9599627B2, “NMR methods for monitoring blood clot formation” (T2 Biosystems, Inc., priority 2011, dated 2017)
